Measurements taken from PMC3625974 (Structure (London, England : 1993), 2012).

What was measured:
TorS (Escherichia coli) = TorS (Escherichia coli) (UniProt P39453); conditions: cited from earlier work
[1] = molecular target: isolated vpTorSS sensor domain, GSGS-TorS(51-323) (V. parahaemolyticus); test: native gel or EMSA + SEC
[2] = molecular target: isolated vpTorSS sensor domain, GSGS-TorS(51-323) (V. parahaemolyticus); test: AUC
[3] = molecular target: vpTorSS-TorSS dimer: two copies of vpTorSS (51-323) fused via a flexible linker [LN(SG)10A3] (V. parahaemolyticus); test: AUC
TorT (vpTorT) = TorT (vpTorT) (Vibrio parahaemolyticus, UniProt Q87ID2); test: ITC; type: binding

Sequence of TorT (P38683 19-342): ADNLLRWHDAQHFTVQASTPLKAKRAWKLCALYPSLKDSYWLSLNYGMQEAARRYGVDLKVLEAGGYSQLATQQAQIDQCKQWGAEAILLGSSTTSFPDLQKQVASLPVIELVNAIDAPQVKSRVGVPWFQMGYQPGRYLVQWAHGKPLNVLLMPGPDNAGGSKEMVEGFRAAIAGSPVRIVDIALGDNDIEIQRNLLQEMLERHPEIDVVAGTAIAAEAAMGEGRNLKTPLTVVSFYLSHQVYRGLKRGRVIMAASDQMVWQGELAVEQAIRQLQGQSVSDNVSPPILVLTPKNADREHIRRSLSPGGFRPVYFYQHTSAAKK

For TorT (from UniProt P38683), the Kd (TorS (Escherichia coli)) is listed as 10 nM.

Work on “periplasmic binding protein TorT from V. parahaemolyticus, GSGS-TorT(29-329) (natural protein)” yielded a stoichiometry N (TorT per TorSS (2:2)) [1] of 1, a stoichiometry N (TorT per TorSS (2:2)) [2] of 1 and a Kd [3] of 1790 nM.

In the case of `C[N+](C)(C)[O-]` [TMAO, trimethylamine-N-oxide], the Kd (TorT (vpTorT)) is reported as 1360 nM.
